Assay results taken from US12491259B2, “Anti-variable MUC1* antibodies and uses thereof” (Minerva Biotechnologies Corporation, priority 2022, dated 2025).

B1: MNC2-MMAF (conjugate)
VH: EVQLVESGGGLVKPGGSLRLSCAASGFTFSGYAMSWVRQAPGKGLEWVSTISSGGTYIYYPDSVKGRFTISRDNAKNSLYLQMNSLRAEDTAVYYCARLGGDNYYEYFDVWGKGTTVTVSS
VL: DIVLTQSPASLAVSPGQRATITCRASKSVSTSGYSYMHWYQQKPGQPPKLLIYLASNLESGVPARFSGSGSGTDFTLTINPVEANDTANYYCQHSRELPFTFGGGTKVEIKRT
B2: MNC2-Deruxtecan (conjugate)
VH: EVQLVESGGGLVKPGGSLRLSCAASGFTFSGYAMSWVRQAPGKGLEWVSTISSGGTYIYYPDSVKGRFTISRDNAKNSLYLQMNSLRAEDTAVYYCARLGGDNYYEYFDVWGKGTTVTVSS
VL: DIVLTQSPASLAVSPGQRATITCRASKSVSTSGYSYMHWYQQKPGQPPKLLIYLASNLESGVPARFSGSGSGTDFTLTINPVEANDTANYYCQHSRELPFTFGGGTKVEIKRT
B3: MN20A10-MMAF (conjugate)
VH: QVQLVESGGGLVKPGGSLRLSCAASGFTFSTYAMSWIRQAPGKGLEWVASIGRAGSTYYSDSVKGRFTISRDNAKNSLYLQMNSLRAEDTAVYYCARGPIYNDYDEFAYWGQGTLVTVSS
VL: EIVLTQSPATLSLSPGERATLSCKSSQSVLYSSNQKNYLAWYQQKPGQAPRLLIYWASTRESGIPARFSGSGSGTDFTLTISSLEPEDFAVYYCHQYLSSLTFGGGTKVEIKR

Legend:
[1] = test system: high antigen (MUC1*) expressing cancer cells; assay: PrestoBlue plate reader killing assays over multiple cancer sub-types (FIGS. 38A-45D); assay type: cell-based; conditions: breast (T47D-MUC1*) and pancreatic (HPAF II-MUC1*) cancer cells
Protocol: Therefore, although seldom done, it is critically important to test anti-cancer therapeutics against both the low antigen expressing early cancer cells and the later cancer cells that express high levels of the targeted antigen. In FIGS. 38A-45D, the ability of MNC2-ADCs and MN20A10-ADCs to kill multiple cancer sub-types was tested, where the tumors were either low-medium antigen expressing cancer cells or high antigen expressing cancer cells. […] The low expressing cancer cells were killed by treatment with either MNC2-ADC or MN20A10-ADC in the high nanomolar range of ADC, which is considered druggable. The cancer cells that expressed high levels of MUC1* were killed with IC50s in the single digit nanomolar range. […]
Another method of measuring the killing activity of mAb MNC2-ADCs and mAb MN20A10-ADCs against target cancer cells including T47D breast cancer cells NCI-H1975 non-small cell lung cancer cells and HPAFII pancreatic cancer cells is to use the PrestoBlue live/dead cell assay (ThermoFisher). […] After 72 hour-120 hour incubation in a 37° C./5% CO2 incubator, cell viability was measure by fluorescence using the PrestoBlue HS assay (ThermoFisher). […] Fluorescence (Ex 560 nm/Em 590 nm) was recorded after 30-90 min. incubation using a Tecan plate reader. Percentage viability was determined by PrestoBlue HS staining and normalized to 1 μM taxol treated cells. […]

[2] = test system: HPAF II wild-type (WT) pancreatic cancer cells; assay: xCELLigence real-time killing assay (impedance); assay type: cell-based, human; conditions: for ADC concentration at which essentially all the tumor cells were killed: readout 120 hours post ADC addition
Protocol: In this assay, impedance is measured in real-time. When the adherent cancer cells are killed and come off of the electrode surface, impedance (insulation) decreases. HPAF II wild-type (WT) pancreatic cancer cells were plated onto multi-electrode-well plates at 5,000 cells per well and allowed to adhere and grow for 24 hours before the addition of ADCs. Either MNC2-MMAE, DAR 4.1, MN20A10-MMAE, DAR 5.8, MNC2-MMAF, DAR 3.7, MN20A10-MMAF, DAR 3.8, MNC2-Deruxtecan, DAR 7.2, or MN20A10-Deruxtecan, DAR 4.6, was then added to the cancer cells. […] Taxol and Triton are added as the positive killing control. […] Taxol and Triton are added as the positive killing control. […] As indicated, essentially all the pancreatic tumor cells were killed at an MNC2-MMAE concentration of 56 nM. […] As indicated, essentially all the tumor cells were killed at an MNC2-MMAF concentration of 56 nM. […] Significant killing is measured at 120 hours at a concentration of about 56 nM. […] As indicated, essentially all the tumor cells were killed at an MN20A10-MMAE concentration of 56 nM-19 nM. […] As indicated, essentially all the tumor cells were killed at an MN20A10-MMAF concentration of 56 nM.
To assess real-time killing of target cancer cells including breast cancer cells (T47D), non-small cell lung cancer cells (NCI-H1975) and pancreatic cancer cells (HP AF II) assays were performed on an xCELLigence RTCA MP Instrument (Agilent). Target Cancer cells were seeded onto a multi-electrode well plate at a density of 5000 cells/well (100 μL of a 50,000 cells/mL stock) and incubated for 24 hr in a 37° C./5% CO2 incubator. mAb MNC2 ADCs or mAb MN20A10-ADCs were prepared as a 2× solution in corresponding growth media and 100 μL of each concentration was added to target cells. As a positive control (100% cell killing) cells were treated with either 1% triton or 1 μM Taxol instead of ADC. After 40-120 hours incubation in a 37° C./5% CO2 incubator cell killing was assessed. In this assay, impedance is measured in real-time. […]

Molecule | concentrations at which cells engineered to express more MUC1* were killed [1] | ADC concentration at which essentially all the tumor cells were killed [2] | concentration with significant killing ([2]; at 120 hours)
B1 | very low nanomolar concentrations | 56 nM | 
B2 |  |  | about 56 nM
B3 | very low nanomolar concentrations | 56 nM | 
